Data as given in article PMC7672431, “NMR structure of a vestigial nuclease provides insight into the evolution of functional transitions in viral dsDNA packaging motors” (Nucleic Acids Research, 2020).

Assays:
[1] = biological target: phi29 gp16 CTD (residues 223–332; C-terminal domain of the packaging ATPase) (bacteriophage phi29) (UniProt P11014); experiment: AUC; sedimentation velocity, 42 000 rpm, 30°C, c(s) distribution in SEDFIT; CTD-L at 25 and 55 μM, CTD at 30 and 85 μM
[2] = biological target: T1, phi29 DNA packaging ATPase gp16, full length, assembled as a pentameric ring in the packaging motor on procapsids (bacteriophage phi29), P11014; experiment: cryo-EM structure; NMR structure of the CTD fitted into a ∼5.2 Å cryoEM map of phi29 particles stalled during packaging with γ-S-ATP (map of ref. 25; CTD density 5-fold averaged); conditions: remark: other sources report otherwise
T1 chain: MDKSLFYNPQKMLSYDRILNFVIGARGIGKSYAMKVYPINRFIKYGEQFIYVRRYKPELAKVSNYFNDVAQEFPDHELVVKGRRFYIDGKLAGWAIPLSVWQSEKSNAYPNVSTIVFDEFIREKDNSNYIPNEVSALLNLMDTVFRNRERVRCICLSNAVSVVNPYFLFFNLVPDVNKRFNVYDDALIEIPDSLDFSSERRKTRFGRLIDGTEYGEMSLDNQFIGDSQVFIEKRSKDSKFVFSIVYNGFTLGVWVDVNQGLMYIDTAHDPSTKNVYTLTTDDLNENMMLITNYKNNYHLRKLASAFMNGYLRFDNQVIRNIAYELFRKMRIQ

[3] = biological target: the molecule itself; experiment: AUC; sedimentation velocity, 42 000 rpm, 30°C, c(s) distribution in SEDFIT; CTD-L at 25 and 55 μM, CTD at 30 and 85 μM
[4] = biological target: T2, gp16 CTD (C-terminal domain of DNA packaging ATPase) (bacteriophage phi29, UniProt P11014 223-332); experiment: fluorescence intensity titration; Fluorescence: 50 mM sodium phosphate pH 6.5, 200 mM NaCl, temperature not stated; NMR: same buffer plus 0.02% NaN3, 2 mM DSS, ~100 uM protein, 303 K; conditions: protein: recombinant, tags: His tag implied (pET30a NdeI/XhoI, Talon resin)
T2 sequence: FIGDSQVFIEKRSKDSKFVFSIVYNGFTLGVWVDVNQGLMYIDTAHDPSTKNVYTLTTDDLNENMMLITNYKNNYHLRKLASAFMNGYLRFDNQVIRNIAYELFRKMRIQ

Q: With “phi29 gp16 CTD (residues 223–332; C-terminal domain of the packaging ATPase) (from UniProt P11014 223-332) (domain or fragment)” as the molecule, how does the percent dimers at 30 and 85 μM [1] read?
A: 2%

B1: phi29 DNA packaging ATPase gp16, full length, assembled as a pentameric ring in the packaging motor on procapsids, P11014 1-332 (enzyme)
chain: MDKSLFYNPQKMLSYDRILNFVIGARGIGKSYAMKVYPINRFIKYGEQFIYVRRYKPELAKVSNYFNDVAQEFPDHELVVKGRRFYIDGKLAGWAIPLSVWQSEKSNAYPNVSTIVFDEFIREKDNSNYIPNEVSALLNLMDTVFRNRERVRCICLSNAVSVVNPYFLFFNLVPDVNKRFNVYDDALIEIPDSLDFSSERRKTRFGRLIDGTEYGEMSLDNQFIGDSQVFIEKRSKDSKFVFSIVYNGFTLGVWVDVNQGLMYIDTAHDPSTKNVYTLTTDDLNENMMLITNYKNNYHLRKLASAFMNGYLRFDNQVIRNIAYELFRKMRIQ
Q: Which stoichiometry N [2] does the source give for B1 here?
A: 5

B2: phi29 gp16 CTD-L (residues 208–332; inter-domain linker and C-terminal domain of the packaging ATPase) (domain or fragment, bacteriophage phi29, UniProt P11014 208-332, looked up)
chain: LIDGTEYGEMSLDNQFIGDSQVFIEKRSKDSKFVFSIVYNGFTLGVWVDVNQGLMYIDTAHDPSTKNVYTLTTDDLNENMMLITNYKNNYHLRKLASAFMNGYLRFDNQVIRNIAYELFRKMRIQ
notes: DNA packaging ATPase gp16 of bacteriophage phi29 (332 amino acids), residues 208-332: inter-domain linker plus C-terminal domain; Cloned between NdeI and XhoI of pET30a, which would add a C-terminal His6 tag (surmised); Isotope-labelled for the NMR experiments; also called gp16 CTD-L (208–332); source: E. coli BL21(DE3), pET30a, purified (Talon resin, HiTrap Q HP)
Q: B2 was tested. Which “stoichiometry N” value [3] did it give?
A: 2

B3: 22 bp dsDNA, 3'-fluorescein (dsDNA)
DNA 1: GGTATCATGTGAGGGTGGGGGC
DNA 2: GCCCCCACCCTCACATGATACC
Q: Which Kd ([4]; label: 3' fluorescein (36FAM) on strand 1, blunt) does the source give for B3 here?
A: 3.1 µM

B4: pRNA A-helix mimic, 3'-fluorescein (structured_RNA)
RNA: UCAAUGGUACGGUACUUCCAUUGUCAUGUUUUUCAUGGCAAAAGUGCACGCUACUUUGAU
Q: Which Kd ([4]; label: 3' fluorescein (36FAM), hairpin) does the source give for B4 here?
A: 3.2 µM
